Experimental data: US20110104140A1, “USE OF NON-CATALYTIC FORM OF HEPARANASE AND PEPTIDES THEREOF FOR REVERSING THE ANTI-COAGULANT EFFECTS OF HEPARINOIDS” (priority 2006, published 2011)
“Also recorded” adds a separate entry of the source.

Legend:
Factor Xa [1] = assay: Factor Xa activity in plasma with heparin / LMWH (anti-Xa activity); type: biochemical, human; details: for Reversal of Factor Xa inhibitory effect of heparin: peptide, dose dependent, complete at 1 mg/ml, FIG. 6; for Reversal of heparin anti-Xa activity: increasing doses of heparanase proenzyme, in the presence of AT
Procedure: Heparin inhibits the activity of activated coagulation factor X (Xa). […] Abbreviations: act. (activity), plas. (plasma).
(§1) Coagulation Assays • aPTT-Automatic determination of activated partial thromboplastin time (aPTT) of samples was performed in duplicates, by mixing pooled normal plasma with aPTT reagent (FSL actin, Dade Behring). After exactly 10 min, the clotting time was determined on Sysmex CA1500 analyzer. • Xa activity—Photometric determination of anti-Xa activity was performed to evaluate the activity of LMWH in human plasma on Sysmex CA1500 analyzer, using the LMWH Kit (Chromogenics). • PT—Prothrombin time (PT) was determined using the Innovin reagent (Dade Behring) on Sysmex CA1500 analyzer. • Protein C—Protein C activity was determined by the Berichrom Protein C kit, and ATIII was measured by the chromogenic Berichrom Antithrombin III kit (both from Dade Behring). • Platelet aggregation—Platelet aggregation was measured on normal donor platelets utilizing the Payton Aggregocorder type aggregometer (Payton Associates). • Protein S—Free Protein S was measured with the Liatest kit (Diagnostica Stago). All coagulation assays were subjected to external quality control program (NEQUAS, Sheffield, UK).
In recent years LMWH became widely used anti-coagulants due to their prominent anti-coagulant activity, and improved pharmacokinetics compared with un-fractionated heparin. However, there is still no existing anti-dot to inhibit these clinically highly abundant anti-coagulants, in the case of urgent clinical needs. Such needs may occur during extensive bleedings (e.g. brain) caused by LMWH overdose, or un-controlled bleedings in LMWH treated individuals due to other medical causes. Therefore, the effects of heparanase pro-enzyme on the anti-coagulant activities of heparinoids, was next tested by the inventors. […] Similar effects of heparanase were observed on plasma treated with unfractionated heparin (not shown).

heparanase = molecular target: T1, heparanase (Homo sapiens, UniProt Q9Y251); details: previously shown, WO 2005/071070; cited from earlier work
T1 sequence (Q9Y251 158-543 limits assumed): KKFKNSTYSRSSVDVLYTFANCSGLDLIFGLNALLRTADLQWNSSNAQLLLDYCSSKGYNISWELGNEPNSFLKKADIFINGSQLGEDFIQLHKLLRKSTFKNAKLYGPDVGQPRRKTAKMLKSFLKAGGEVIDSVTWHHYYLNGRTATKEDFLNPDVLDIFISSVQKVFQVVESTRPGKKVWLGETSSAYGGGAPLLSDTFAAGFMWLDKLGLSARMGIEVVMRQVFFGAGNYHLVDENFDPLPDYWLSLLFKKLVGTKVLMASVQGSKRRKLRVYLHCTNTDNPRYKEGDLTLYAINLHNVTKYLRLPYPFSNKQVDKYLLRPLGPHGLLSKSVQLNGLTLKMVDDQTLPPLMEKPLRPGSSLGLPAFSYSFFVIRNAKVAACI

[2] = tested on: extrinsic coagulation pathway; assay: Prothrombin time (PT); type: biochemical; details: for Effect on PT response: not shown
Procedure: as §1
(§2) To examine the possible involvement of heparanase in the coagulation process, variety of coagulation tests including activated […] (aPTT, testing the intrinsic coagulation pathway), prothrombin time (PT, testing the extrinsic coagulation pathway), thrombin time (TT, testing thrombin mediated fibrin generation), as well as protein C and protein S (both coagulation inhibitors) were performed by the inventors.

[3] = tested on: heparin anti-coagulant effects on the aPTT response; assay: aPTT assay in normal plasma with heparin; type: biochemical
Procedure: In the aPTT assay, clot is generated within normal plasma by the intrinsic coagulation pathway. […] Abbreviations: cont. (control), N. coag. (No coagulation).
as §1
The extent of blood coagulation responses requires the balance by anticoagulant components in the microenvironment of the endothelium, represented by cell surface HSPG and associated coagulation inhibitors. Heparanase, which is released from platelets upon activation may function as a physiological procoagulant. […] Two coagulation assays are affected by heparinoids: activated partial thromboplastin time (aPTT) which measures the intrinsic coagulation pathway, and thrombin time (TT) which measures the thrombin-mediated conversion of fibrinogen to fibrin. As illustrated by FIG. 1, in both cases, heparin forms a ternary complex with the natural thrombin inhibitor antithrombin III (ATIII) and thrombin, resulting in thrombin inactivation. […]

[4] = tested on: heparin anti-coagulant effects on thrombin activity; assay: Thrombin time assay (TTA) in normal plasma with heparin; type: biochemical; details: FIG. 3
Excerpt: In the thrombin time assay (TTA), clot is generated within normal plasma. […] Abbreviations: cont. (control), sec. (seconds), N. coag. (No coagulation).
The extent of blood coagulation responses requires the balance by anticoagulant components in the microenvironment of the endothelium, represented by cell surface HSPG and associated coagulation inhibitors. Heparanase, which is released from platelets upon activation may function as a physiological procoagulant. […] Two coagulation assays are affected by heparinoids: activated partial thromboplastin time (aPTT) which measures the intrinsic coagulation pathway, and thrombin time (TT) which measures the thrombin-mediated conversion of fibrinogen to fibrin. As illustrated by FIG. 1, in both cases, heparin forms a ternary complex with the natural thrombin inhibitor antithrombin III (ATIII) and thrombin, resulting in thrombin inactivation. […] The inventors therefore next examined the effect of heparanase on the heparin induced reduction of both, aPTT and TT responses.

normal donor platelets = assay: Platelet aggregation stimulated by mediators (ADP, collagen, thrombin); type: cell-based; details: Heparanase 10 μg/ml
Procedure: as §1
The effects of heparanase on platelet aggregation stimulated by a variety of mediators (e.g. ADP, collagen, thrombin), was next tested.

Factor Xa [5] = molecular target: T2, Factor Xa (Bos taurus, UniProt P00743); assay: Factor Xa activity, direct effect; type: biochemical, human; details: Heparanase 10 μg/ml, no heparinoid, normal value 100%
T2 construct: purchased Chromogenics
T2 sequence (P00743 234-492 limits assumed): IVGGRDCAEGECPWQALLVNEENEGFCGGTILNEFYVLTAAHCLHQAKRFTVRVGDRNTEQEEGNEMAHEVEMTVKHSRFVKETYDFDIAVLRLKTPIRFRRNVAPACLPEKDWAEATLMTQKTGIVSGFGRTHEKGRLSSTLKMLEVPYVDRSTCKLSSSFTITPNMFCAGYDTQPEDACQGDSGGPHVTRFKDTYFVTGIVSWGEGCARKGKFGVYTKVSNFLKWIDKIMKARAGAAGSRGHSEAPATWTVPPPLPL
T2 sequence (P00743 41-180 limits assumed): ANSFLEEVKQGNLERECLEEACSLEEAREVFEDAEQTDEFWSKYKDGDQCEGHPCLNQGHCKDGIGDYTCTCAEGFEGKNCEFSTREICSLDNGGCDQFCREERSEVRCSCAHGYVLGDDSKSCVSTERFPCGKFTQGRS
Procedure: as §1

Antithrombin III = molecular target: T3, Antithrombin III (Homo sapiens, UniProt P01008); assay: Antithrombin III (chromogenic Berichrom Antithrombin III kit); type: biochemical; details: Heparanase 10 μg/ml; normal range 74-114%
T3 construct: from tissue; host or cells: normal plasma
T3 sequence (P01008 33-464): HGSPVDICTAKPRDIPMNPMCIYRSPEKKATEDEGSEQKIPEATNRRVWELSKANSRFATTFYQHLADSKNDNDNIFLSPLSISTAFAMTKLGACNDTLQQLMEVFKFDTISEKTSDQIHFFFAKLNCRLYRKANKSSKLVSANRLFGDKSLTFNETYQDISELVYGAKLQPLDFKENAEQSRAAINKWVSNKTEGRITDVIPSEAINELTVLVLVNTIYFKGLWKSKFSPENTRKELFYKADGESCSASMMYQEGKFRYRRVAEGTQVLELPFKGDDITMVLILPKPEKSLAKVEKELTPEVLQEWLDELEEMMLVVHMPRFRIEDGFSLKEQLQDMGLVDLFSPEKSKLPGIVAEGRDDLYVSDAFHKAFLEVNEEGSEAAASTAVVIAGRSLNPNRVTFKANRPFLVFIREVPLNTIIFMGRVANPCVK
Procedure: as §1

Protein S = molecular target: T4, Protein S (Homo sapiens, UniProt P07225); assay: Protein S activity (Liatest kit); type: biochemical; details: Heparanase 10 μg/ml; normal range 54-138%
T4 construct: from tissue; host or cells: normal plasma
T4 sequence (P07225 42-676): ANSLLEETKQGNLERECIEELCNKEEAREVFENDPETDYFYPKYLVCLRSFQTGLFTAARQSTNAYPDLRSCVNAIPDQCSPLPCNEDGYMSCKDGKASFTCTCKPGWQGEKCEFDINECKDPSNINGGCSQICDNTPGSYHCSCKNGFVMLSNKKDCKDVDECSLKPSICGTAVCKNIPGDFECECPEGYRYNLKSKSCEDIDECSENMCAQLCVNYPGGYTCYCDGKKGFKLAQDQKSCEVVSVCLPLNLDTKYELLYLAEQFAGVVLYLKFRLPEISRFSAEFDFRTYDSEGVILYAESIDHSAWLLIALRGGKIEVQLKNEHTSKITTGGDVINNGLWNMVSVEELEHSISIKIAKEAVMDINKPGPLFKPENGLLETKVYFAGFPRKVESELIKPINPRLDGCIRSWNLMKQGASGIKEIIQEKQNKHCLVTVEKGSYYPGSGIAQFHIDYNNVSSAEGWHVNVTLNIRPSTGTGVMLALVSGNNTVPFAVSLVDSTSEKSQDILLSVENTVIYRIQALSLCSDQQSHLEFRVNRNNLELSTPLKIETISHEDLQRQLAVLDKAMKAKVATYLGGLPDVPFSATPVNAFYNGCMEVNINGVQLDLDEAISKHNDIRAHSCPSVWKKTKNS
Procedure: as §1

Protein C = molecular target: T5, Protein C (Homo sapiens, UniProt P04070); assay: Protein C activity (Berichrom Protein C kit); type: biochemical; details: Heparanase 10 μg/ml; normal range 75-151%
T5 construct: from tissue; host or cells: normal plasma
T5 sequence (P04070 19-461 limits assumed): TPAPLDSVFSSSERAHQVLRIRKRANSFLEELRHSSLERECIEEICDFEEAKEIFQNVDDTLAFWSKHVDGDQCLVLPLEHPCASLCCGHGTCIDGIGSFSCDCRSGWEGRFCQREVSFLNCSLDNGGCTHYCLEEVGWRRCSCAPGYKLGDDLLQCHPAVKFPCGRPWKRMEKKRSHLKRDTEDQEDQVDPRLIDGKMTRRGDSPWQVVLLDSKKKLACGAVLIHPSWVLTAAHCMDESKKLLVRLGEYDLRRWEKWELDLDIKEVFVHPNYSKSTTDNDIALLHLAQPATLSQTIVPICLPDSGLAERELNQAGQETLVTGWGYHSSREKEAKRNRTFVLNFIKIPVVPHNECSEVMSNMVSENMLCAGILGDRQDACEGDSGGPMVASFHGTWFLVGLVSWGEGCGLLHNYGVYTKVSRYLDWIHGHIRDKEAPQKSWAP
Procedure: as §1

[6] = tested on: intrinsic coagulation pathway; assay: Activated partial thromboplastin time (aPTT), direct effect; type: biochemical; details: Heparanase 10 μg/ml; normal range 25-34 sec
Procedure: as §1, with “UK). […]” for “UK).”

[7] = tested on: thrombin mediated fibrin generation; assay: Thrombin time (TT), direct effect; type: biochemical; details: Heparanase 10 μg/ml; normal range 14-21 sec
Excerpt: Another test may be the Thrombin Time (TT) assay which reflects the time taken for a plasma sample to clot on addition of thrombin. The test is essentially a measure of fibrinogen to fibrin conversion and the factors affecting this terminal stage of the coagulation system.
as §2

Factor Xa [8] = assay: Factor Xa activity ex vivo in plasma of LMWH-treated patients; type: biochemical, human; details: for Factor Xa activity in LMWH-treated patient plasma: plasma of twelve LMWH-treated patients, measured within 5 min, recombinant pro-heparanase, FIG. 5A
Procedure: FIG. 5A. Heparanase pro-enzyme was added to plasma derived from twelve independent LMWH-treated patients. Factor Xa activity was then measured, within 5 min. Each sample was measured in the absence (open bars) or presence (filled bars) of […] recombinant pro-heparanase. Each measurement was performed in duplicates (the average of each duplicate is shown, with differences between measurements <10%).
FIG. 5B. Summary of the effect of pro-heparanase on Factor Xa activity in the presence of heparin treated plasma, and the 12 LMWH-treated patient derived plasma samples (average±S.D.). Abbreviations: act. (activity), pat. (patient), pla. (plasma) cont. (control).
In order to assess possible clinical effects of heparanase pro-enzyme as an anti-dot to LMWH, heparanase pro-enzyme effect on Factor Xa activity ex vivo, was next tested in plasma derived from patients treated with LMWH, which were incubated with 10 •g/ml heparanase proenzyme. […] Thus, heparanase pro-enzyme reduced FXa inhibitory effects of LMWH in individual patient plasma samples, even at high levels of LMWH. Overall, the level of FXa inhibitory activity of LMWH in treated patients was reduced approximately by 50% (FIG. 5B).

## Enoxaparin [low molecular weight heparin, reference compound]
Factor Xa [1]; FIG. 4
  Effect of heparinoid on Factor Xa activity: reduces significantly

## Lys158-Asp171 heparin-binding peptide: fourteen amino acid peptide of residues Lys158-Asp171 of human heparanase, heparin-binding domain, SEQ ID NO: 1 (KKFKNSTYSRSSVD; listed as Homo sapiens)
heparanase
  Inhibition of heparanase enzymatic activity: inhibited heparanase enzymatic activity in a dose-responsive manner
Factor Xa [1]; peptide 1 mg/ml, FIG. 7
  Reversal of Factor Xa inhibitory effect of LMWH: completely reverse
  Reversal of Factor Xa inhibitory effect of UFH: completely reverse
Factor Xa [1]; peptide 1 mg/ml, FIG. 7, listed as Lys158-Asp171 heparin binding (HB) peptide
  Reversal of Factor Xa inhibitory effect of LMWH: abolished
Factor Xa [1]
  Reversal of Factor Xa inhibitory effect of heparin: completely reverse
Factor Xa [1]; listed as Lys158-Asp171 heparin binding (HB) peptide
  Reversal of Factor Xa inhibitory effect of heparin: abolished the FXa inhibitory effects of heparin

## heparin [reference compound]
[2]
  Effect on PT response: neither heparin nor heparanase pro-enzyme affected
[3]; 1 u/ml heparin, normal plasma, FIG. 2
  Inhibition of clot formation in aPTT assay: complete coagulation inhibition
[4]; 0.5 u/ml heparin
  Inhibition of clot formation in thrombin time assay: complete coagulation inhibition

B1: Heparanase pro-enzyme: latent 65 kDa human heparanase protein with Myc and His tags, purified from conditioned medium of CHO cells (protein, UniProt Q9Y251 36-543, looked up)
pro-form: QDVVDLDFFTQEPLHLVSPSFLSVTIDANLATDPRFLILLGSPKLRTLARGLSPAYLRFGGTKTDFLIFDPKKESTFEERSYWQSQVNQDICKYGSIPPDVEEKLRLEWPYQEQLLLREHYQKKFKNSTYSRSSVDVLYTFANCSGLDLIFGLNALLRTADLQWNSSNAQLLLDYCSSKGYNISWELGNEPNSFLKKADIFINGSQLGEDFIQLHKLLRKSTFKNAKLYGPDVGQPRRKTAKMLKSFLKAGGEVIDSVTWHHYYLNGRTATKEDFLNPDVLDIFISSVQKVFQVVESTRPGKKVWLGETSSAYGGGAPLLSDTFAAGFMWLDKLGLSARMGIEVVMRQVFFGAGNYHLVDENFDPLPDYWLSLLFKKLVGTKVLMASVQGSKRRKLRVYLHCTNTDNPRYKEGDLTLYAINLHNVTKYLRLPYPFSNKQVDKYLLRPLGPHGLLSKSVQLNGLTLKMVDDQTLPPLMEKPLRPGSSLGLPAFSYSFFVIRNAKVAACI
modifications: pro-form Myc and His tags
notes: latent 65 kDa human heparanase protein with Myc and His tags, purified from conditioned medium of CHO cells
[2]; Heparanase 10 μg/ml, normal range 10.03-12.43 sec, single representative experiment
  Prothrombin time (PT): 10.6 s
[2]
  Effect on PT response: neither heparin nor heparanase pro-enzyme affected
Normal donor platelets
  Platelet aggregation: No effects of heparanase
Factor Xa [5]
  Factor Xa-activity: 102%
Factor Xa [5]; listed as heparanase proenzyme
  Factor Xa-activity: had no effect
Antithrombin III
  Antithrombin III: 103%
Factor Xa [1]; FIG. 4
  Reversal of heparin anti-Xa activity: restoring Xa activity to normal levels
Factor Xa [1]; FIG. 4, listed as heparanase proenzyme
  Reversal of heparin anti-Xa activity: restoring FXa activity to the normal level
[3]; heparanase concentrations of less then 5 μg/ml, not shown, assay not specified
  Pro-coagulant effects at low concentration: no pro-coagulant effects
[3]; normal plasma, neutral pH, FIG. 2
  Reversal of heparin anti-coagulant effects on the aPTT response: significantly reversed
Protein S
  Protein S-activity: 105%
Protein C
  Protein C-activity: 111%
[4]
  Reversal of heparin anti-coagulant effects on thrombin time: significantly prevented; also recorded: significantly reversed
[6]
  Activated partial pro-thrombin time (aPTT): 29.4 s
[7]
  Thrombin time (TT): 17.3 s
Factor Xa [8]; 10 •g/ml heparanase proenzyme, overall of 12 patients, FIG. 5B
  Reduction of FXa inhibitory activity of LMWH in treated patients: ~50%
Factor Xa [8]
  Factor Xa activity in LMWH-treated patient plasma: significant elevation
Factor Xa [8]; listed as heparanase pro-enzyme
  Factor Xa activity in LMWH-treated patient plasma: elevated significantly
